Measured values taken from IntAct's records for PubMed 9278513.

B1: Response regulator Rcp1 (Synechocystis sp. (strain PCC 6803 / Kazusa)), Q55169 (parent)
chain: MSDESNPPKVILLVEDSKADSRLVQEVLKTSTIDHELIILRDGLAAMAFLQQQGEYENSPRPNLILLDLNLPKKDGREVLAEIKQNPDLKRIPVVVLTTSHNEDDVIASYELHVNCYLTKSRNLKDLFKMVQGIESFWLETVTLPAA
B2: Phytochrome-like protein Cph1 (Synechocystis sp. (strain PCC 6803 / Kazusa)), Q55168 (parent)
chain: MATTVQLSDQSLRQLETLAIHTAHLIQPHGLVVVLQEPDLTISQISANCTGILGRSPEDLLGRTLGEVFDSFQIDPIQSRLTAGQISSLNPSKLWARVMGDDFVIFDGVFHRNSDGLLVCELEPAYTSDNLPFLGFYHMANAALNRLRQQANLRDFYDVIVEEVRRMTGFDRVMLYRFDENNHGDVIAEDKRDDMEPYLGLHYPESDIPQPARRLFIHNPIRVIPDVYGVAVPLTPAVNPSTNRAVDLTESILRSAYHCHLTYLKNMGVGASLTISLIKDGHLWGLIACHHQTPKVIPFELRKACEFFGRVVFSNISAQEDTETFDYRVQLAEHEAVLLDKMTTAADFVEGLTNHPDRLLGLTGSQGAAICFGEKLILVGETPDEKAVQYLLQWLENREVQDVFFTSSLSQIYPDAVNFKSVASGLLAIPIARHNFLLWFRPEVLQTVNWGGDPNHAYEATQEDGKIELHPRQSFDLWKEIVRLQSLPWQSVEIQSALALKKAIVNLILRQAEELAQLARNLERSNADLKKFAYIASHDLQEPLNQVSNYVQLLEMRYSEALDEDAKDFIDFAVTGVSLMQTLIDDILTYAKVDTQYAQLTFTDVQEVVDKALANLKQRIEESGAEIEVGSMPAVMADQIQLMQVFQNLIANGIKFAGDKSPKIKIWGDRQEDAWVFAVQDNGIGIDPQFFERIFVIFQRLHTRDEYKGTGMGLAICKKIIEGHQGQIWLESNPGEGSTFYFSIPIGN
partner: B1 chain

Variants of: B1
Details: with phy1_syny3 cph1, Q55168

| effect of a mutation on the interaction | Variant |
| --- | --- |
| disrupting interaction | D68A |

Variants of: B2
Details: with rcp1_syny3 rcp1, Q55169

| effect of a mutation on the interaction | Variant |
| --- | --- |
| disrupting interaction | H538K |
